Tested on: MS2 coat protein
Experiment: apparent KD of MS2 coat protein; designed switch direction (-1 OFF switch, 1 ON switch): -1; higher = weaker reporter binding
Procedure, shortened: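 Normalised cluster fluorescence was curve-fitted, and each design's median over clusters is its apparent KD. Before this, SNAP-549-labelled MS2 coat protein was titrated from 0.7 or 1.5 nM, doubling to 3 µM, over RNA switches transcribed on Illumina chips by stalled E. coli RNA polymerase. Titrations had no input, 200 uM small-molecule ligand, or an oligonucleotide input, and steps lasted 0.8–1.5 h (lowest) to 10–20 min (highest).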

[1] = Eterna round: R95, input ligand: microRNA oligo, concentration not stated
[2] = input ligand: microRNA oligo, concentration not stated
[3] = Eterna round: R95, input ligand: FMN 200 uM
[4] = Eterna round: R95, input ligand: none

Row | Sequence | apparent KD of MS2 coat protein [1] | apparent KD of MS2 coat protein [2] | apparent KD of MS2 coat protein (input ligand: FMN 200 uM) | apparent KD of MS2 coat protein (input ligand: none) | apparent KD of MS2 coat protein [3] | apparent KD of MS2 coat protein [4]
1 | CCUUUGUCAGGAUAUCAGAACGCGCUCGUAGGGAGCGCGAAUGAGAAGGGACAUGAGGAUCACCCAUGUAAAGA [Soedes] (puzzle: Exclusion 4) | 74.3 nM |  |  |  |  | 
2 | UUUAUAUAGUAAGGAUAUGUAUUAUUUUUUUCAACAGAAGGUACUGACAUGAGGAUCACCCAUGUUUUAGUGUGGGCAUGUAGU [JMF's solution 98] (Eterna round: R96, puzzle: Exclusion NG 1) |  | 323 nM |  |  |  | 
3 | UGCAGACGAGGAUAUAGAUUUGAUAACAUGAGGAUCACCCAUGUGAUCGAUAGAUCAGAUUUAGAAGGCGUCUGCA [E5/8-A2] (Eterna round: R97, puzzle: Exclusion 5) |  |  | 628 nM | 529 nM |  | 
4 | UUUUCCUGGCAAGGAUAUCCUGUGCGGUUCCGGCUCGUGUCUGUUACAUGAGGAUCACCCAUGUGGGAGAAGGUGCCUGUGGUU [Design 89] (Eterna round: R96, puzzle: Exclusion NG 2) |  | 34.3 nM | 272 nM | 41.7 nM |  | 
5 | CUAGCGGAUGUAGGAUAUCGGACUGUUUCAGUCUGAGAAGGACAUGAGGAUCACCCAUGUAUUGCUGCGUGAGUAGCACGCUAG [JL ENG1 3.97] (Eterna round: R96, puzzle: Exclusion NG 1) |  | 17.4 nM |  |  |  | 
6 | AAUUAGUAUGUGAGGAUAUUGACGGAAUGACUUGUUAAGAAGGCACAUGAGGAUCACCCAUGUGGGAAGUCACG [JR_BMEx4_Sub012] (Eterna round: R97, puzzle: Brourd's mod of Exclusion 4) |  |  | 57.1 nM | 18.1 nM |  | 
7 | GCUCCAGGAGGAUAUGCAUUCGAAAACAUGAGGAUCACCCAUGUAGGUGUCCUCGUGCGAGCAGAAGGCCUAAAAC [Rebebiso] (Eterna round: R97, puzzle: Exclusion 5) |  |  | 145 nM | 208 nM |  | 
8 | UUACUAUGUCGCCUAAUAGCUUUUUGCUCGUCUUAUAUUACAUGAGGAUCACCCAUGUAGAUCAUGUGGCGUGACCU [JL ViennaUCT Maridi mod 4] (puzzle: Sensor v3, turn-off variant 2) | 39.1 nM |  |  |  | 246 nM | 217 nM
9 | AAUAAUAAGGAGGAUAUCGUAUCGGAAACGAUACGAGAAGGCCUAACAUGAGGAUCACCCAUGUUCCUUAAAUA [Mat - Exclusion 6 - Eli Mod - D61] (puzzle: Exclusion 6) | 19.1 nM |  |  |  | 37.3 nM | 20.1 nM
10 | UAGCAUUGCCAAAGGUAGUGCAUUACAUGAGGAUCACCCAUGUAGGAUAUGGUAGGCUUUGCUUACCAGAAGGACAUGAUAAUU [Mat - Exclusion NG 3 - Mod of JL - D15] (Eterna round: R96, puzzle: Exclusion NG 3) |  | 29.6 nM | 112 nM | 43.1 nM |  | 
11 | AGUUGGCGAGGAUAUACAUGAGGAUCACCCAUGUGAGAGAAUAAAGUGAGGAAGAAAAGUAGAAGGCGCUGACG [Mat - Exclusion 3 - Mod of Salish D7] (puzzle: Exclusion 3) | 52 nM |  |  |  | 61.1 nM | 53.8 nM
12 | AAGAAACAUGAGGAUCACCCAUGUGAGGAUAUGAGAAAGAAAAGAAAAGAAAGAAGACUCAGAAGGCACAAAGG [salish99-ex1_r3_040] (puzzle: Exclusion 1) | 54.7 nM |  |  |  | 152 nM | 120 nM
13 | AAGCUGUCAGGAUAUCGUUAAUUUAGUUGUUUGUAUUAGUUCGAGAAGGGACAUGAGGAUCACCCAUGUAUGUA [Ex4 #39] (Eterna round: R97, puzzle: Exclusion 4) |  |  | 76.3 nM | 34.2 nM |  | 
14 | UUGUUAUAUGAAGGAUAUACUUAACAUGAGGAUCACCCAUGUGGUGUUGUGAGUGAGUGAGUUUAGUAGAAGGUCAAUGAUUUU [JMF's solution 73] (Eterna round: R96, puzzle: Exclusion NG 2) |  | 309 nM | 513 nM | 344 nM |  | 

Reference: the supplement of paper PMC9170038
